Values of other authors in article PMC8714859.

Columns and labels:
[1] = molecular target: interleukin-34 (Homo sapiens) (UniProt Q6ZMJ4)
M-CSF (Homo sapiens) = M-CSF (Homo sapiens) (UniProt P09603)
Chain of UniProt P09603 (P09603 33-190): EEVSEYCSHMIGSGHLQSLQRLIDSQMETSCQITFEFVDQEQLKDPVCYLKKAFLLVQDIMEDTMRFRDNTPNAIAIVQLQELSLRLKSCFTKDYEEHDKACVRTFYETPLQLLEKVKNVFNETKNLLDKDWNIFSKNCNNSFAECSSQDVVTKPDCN

Chain of UniProt Q6ZMJ4 (Q6ZMJ4 21-242): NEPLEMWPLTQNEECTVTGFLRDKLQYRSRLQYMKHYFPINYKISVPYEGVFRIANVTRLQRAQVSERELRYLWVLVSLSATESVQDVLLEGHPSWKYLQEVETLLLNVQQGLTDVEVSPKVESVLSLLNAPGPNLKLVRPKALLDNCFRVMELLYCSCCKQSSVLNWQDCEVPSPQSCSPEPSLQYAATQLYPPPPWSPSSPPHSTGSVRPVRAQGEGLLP

Kd [1]: 0.001 nM | Kd (M-CSF (Homo sapiens)): 0.034 nM
Substance: M-CSF receptor (from UniProt P07333)
